Substrate in series [1]: CC(=O)C(=O)O
The series can be described thus: purified protein. In kind it is biochemical, Neomoorella thermoacetica. The note with it: 0.5 mM NADH, 50 mM Tris/HCl pH 8, 10 mM NaCl, 4 mM DTE, 65 °C, anoxic.

Substrate in series [2]: C[C@H](O)C(=O)O
The series can be described thus: purified protein. In kind it is biochemical, Neomoorella thermoacetica. The note with it: 2 mM NAD+, 50 mM Tris/HCl pH 8, 10 mM NaCl, 4 mM DTE, 65 °C, anoxic.

Substrate in series [3]: NC(=O)C1=CN([C@@H]2O[C@H](COP(=O)(O)OP(=O)(O)OC[C@H]3O[C@@H](n4cnc5c(N)ncnc54)[C@H](O)[C@@H]3O)[C@@H](O)[C@H]2O)C=CC1
The series can be described thus: purified protein. The class given is biochemical, Neomoorella thermoacetica. The following applies: 1 mM pyruvate, 50 mM Tris/HCl pH 8, 10 mM NaCl, 4 mM DTE, 65 °C, anoxic, varied: cofactor.

Substrate in series [4]: NC(=O)c1ccc[n+]([C@@H]2O[C@H](COP(=O)(O)OP(=O)(O)OC[C@H]3O[C@@H](n4cnc5c(N)ncnc54)[C@H](O)[C@@H]3O)[C@@H](O)[C@H]2O)c1
Put plainly: purified protein. In kind it is biochemical, Neomoorella thermoacetica. The note with it: 20 mM L-lactate, 50 mM Tris/HCl pH 8, 10 mM NaCl, 4 mM DTE, 65 °C, anoxic, varied: cofactor.

Series [5] deals with the molecule itself. Put plainly: SEC; calibrated Superose 6 column, buffer 4 (50 mM Tris/HCl pH 7.5, 150 mM NaCl, 20 mM MgSO4, 20% glycerol, 4 mM DTE, 4 uM resazurin), size standards aprotinin, carbonic anhydrase, ovalbumin, conalbumin; native size 60 kDa against a 34 kDa monomer. In general terms: Size exclusion chromatography separates by hydrodynamic size, large species first.

Usually Km stands for the substrate concentration at which the rate is half of its maximum. A word on the stoichiometry N: it is the number of molecules, sites or subunits per partner or assembly.

B1: LDH from M. thermoacetica (Moorella thermoacetica ATCC 39073) (protein)
chain: MGLQGPAKVAIIGTGYVGSSTAFALLFSPLVKEMVLVDVNHAKAEGEAMDLAHAATLIRPVEVYAGRPADCAGSRIVIFTAGANQQPGQTRLDLIHRNTAIVRQALPEILHYCPEALVLMVANPVDILTYVAWKISGLPENRVLGSGTVLDSARFRHLLSRHYRVDPRNIHAYVIGEHGDTEVPVWSLANVAGVDLEEFYLMDGMREEEAFRVEISHQVREAAYEIIERKGVTSYGVALALSRIIECILRNEHSVLTISSVIRDLYGIDGEVALSLPCLVGNEGREKVLAIPLVAREKAALKHSATTLQQLIAQLSL
notes: native full-length, purified from lactate-grown cells; native 60 kDa, dimer
Take B1: the Km was 1000 µM in “purified protein [1]”, 20000 µM in “purified protein [2]”, 100 µM in “purified protein [3]” and 500 µM in “purified protein [4]”.

B2: NAD+-dependent lactate dehydrogenase from Moorella thermoacetica (enzyme, Moorella thermoacetica (DSM 521), UniProt Q2RHG3 1-317, looked up)
chain: MGLQGPAKVAIIGTGYVGSSTAFALLFSPLVKEMVLVDVNHAKAEGEAMDLAHAATLIRPVEVYAGRPADCAGSRIVIFTAGANQQPGQTRLDLIHRNTAIVRQALPEILHYCPEALVLMVANPVDILTYVAWKISGLPENRVLGSGTVLDSARFRHLLSRHYRVDPRNIHAYVIGEHGDTEVPVWSLANVAGVDLEEFYLMDGMREEEAFRVEISHQVREAAYEIIERKGVTSYGVALALSRIIECILRNEHSVLTISSVIRDLYGIDGEVALSLPCLVGNEGREKVLAIPLVAREKAALKHSATTLQQLIAQLSL
notes: L-lactate dehydrogenase of Moorella thermoacetica DSM 521, product of the ldh gene (954 bp, predicted mass 34.6 kDa), identified by peptide mass fingerprinting; Native enzyme purified from the organism; on SDS-PAGE about 34 kDa, which fits the predicted monomer; also called LDH; gene product of the ldh gene
For the protein B2, the “stoichiometry N” value in series [5] was 2.

The values above are taken from publication PMC12051018, “Purification and characterization of a thermophilic NAD ^+‐dependent lactate dehydrogenase from Moorella thermoacetica” (FEBS Open Bio, 2025).
